Patent US12552837B2, “Bicyclic peptide ligands with detectable moieties and uses thereof” (BicycleRD Limited, priority 2017, dated 2026)
*1 amine or outer side, *2 acyl side, *3 side chain or, on linkers, in order; H or OH if unused. Where a SMILES comes first, the peptide text is derived from it. Bridges are numbered along the chain shown (N, C = ends). [ ]: non-standard residue; d: D form. The star is where a group is joined. DOTA = O=C(O)CN1CCN(CC(=O)O)CCN(CC(=O)*)CCN(CC(=O)O)CC1; 1Nal = N[C@@H](Cc1cccc2ccccc12)C(=O)O; TBMB = c1c(C[*:1])cc(C[*:3])cc1C[*:2]; Palmitoyl = CCCCCCCCCCCCCCCC(=O)*; Tle = CC(C)(C)[C@H](N)C(=O)O; Aib = CC(C)(N)C(=O)O; βAla = NCCC(=O)O; Sar = CNCC(=O)O

Assays:
HT1080 tumor = assay: Organ distribution of 177Lu-labelled peptides in HT1080 xenograft mice; format: in vivo, BALB/c nu/nu mice
Protocol: (§1) General procedure for radiolabelling with Lu-177.
(§2) • 50 μL 0.25 M Na-Acetate buffer pH 5.2+0.1% Tween 20; • 10 μL [Lu-177]LuCl3 in 0.05 M HCl; and • 2 μL of the diluted peptide (2 nmols). […]
(§3) Organ distribution studies, general method: For organ distribution, the respective dose is prepared by dilution of the labeling reaction mixture in injection buffer (0.25 M Na-Acetate pH 7+0.05% Tween20). The ^177Lu-radiolabeled peptide was injected via the tail vein of the nu/nu mice (50 kBq per mouse), transplanted with the respective cell line. At indicated time points after injection the animals were sacrificed. Blood, heart, lung, spleen, liver, kidney, muscle, brain, femur, and the tumor were dissected, blotted dry, and weighed. The radioactivity was measured with a γ-counter (CobraII; Canberra Packard) along with a sample of the injection solution to calculate the percentage injected dose per gram of tissue (% ID/g).
(§4) The γ- and β-emitter ^177LuCl3 (NEZ307D, Perkin Elmer, in 0.04 M HCl), with a t1/2 of 6.7 days was used for both in vivo biodistribution and internalization studies. Labeling reactions were performed by adding 10 μL ^177LuCl3 (˜10 MBq) in 50 mM HCl, 2 μL of the diluted peptide (1 mM solution in 50 mM HEPES buffer pH 7+0.1% Tween 20 diluted from a 10 mM DMSO stock) to 50 μL 50 mM HEPES buffer pH 7 supplemented with 0.1% Tween 20. The reaction mixture was incubated at 98° C. for 10 minutes. The radiochemical yield (RCY) was determined using high performance liquid chromatography (HPLC) system equipped with a Latek P402 (Latek, Eppelheim, Germany), a HITACHI variable UV detector (absorbance was measured at 214 and 254 nm) and a gamma detector (Bioscan, WA, USA), using a Chromolith RP-18 column (100×4.6 mm; Merck). The analytical HPLC run was performed at 4 mL/min, using a linear A (0.1% trifluoroacetic acid (TFA) in water) to B (0.1% TFA in acetonitrile) gradient (0% B to 100% B in 6 min). Thin-layer chromatography was performed in parallel to confirm the results of the radio-HPLC. The RCY was generally >95%, and thus, the output of labelling reactions was directly diluted with the appropriate buffer and further unlabeled peptide if required, to use in subsequent experiments.
(§5) 5×10^6 cells of HT1080 were subcutaneously inoculated into the right trunk of male 6-week-old BALB/c nu/nu mice (Charles River Laboratories). The tumors were grown for approximately 1 week, to a maximum size of ˜200 mm^3. Respective doses were prepared by mixing a fixed quantity of 5 pmoles ^177Lu labelled peptides (at approx. 50 kBq) with different quantities of non-labelled peptide (derived from 1 mM stock solution in 0.25 M sodium acetate pH 7+0.05% Tween20) in 100 μL injection buffer (0.25 M sodium acetate pH 7+0.05% Tween20). 3 animals were used per dose and timepoint. Radiolabelled peptide solutions were injected via the tail vein, followed by sacrifice at various time points. Organs of interest (blood, heart, lung, spleen, liver, kidney, muscle, small intestine, brain, HT1080 tumor) were dissected, blotted dry, and weighed. The radioactivity was measured using a gamma counter and calculated as % ID/g.

[1] = as above; format: in vivo, BALB/c nu/nu mice; settings: male, BALB/c nu/nu, mouse, HT1080 tumor, iv, total radioactivity; 1 h p.i. of 150 pmoles
Protocol: as §1, §2, §3, §4, §5

MT1-MMP hemopexin domain = MT1-MMP hemopexin domain (Homo sapiens, UniProt P50281); assay: Fluorescence polarization direct binding / competition assay to MT1-MMP hemopexin domain
Protocol: Direct Binding Fluorescence Polarization or Anisotropy Assays are performed by titrating a constant concentration of fluorescent tracer (here, the fluoresceinated bicyclic peptide to be studied) with its binding partner (here, the MT1-MMP hemopexin domain). As the concentration of binding partner increases during the titration, the polarization signal changes in proportion to the fraction of bound and unbound material. This allows determination of […] (Kd) quantitatively. Assay data can be fit using standard ligand binding equations.
Typically, concentrations of the tracer are ideally well below the Kd of the tracer: titrant pair, and concentrations chosen are usually at ˜1 nM or less. The titrant (binding partner) concentration is varied from 0.1 nM up to typically 5 μM. The range is chosen such that the maximum change in fluorescent polarization can be observed. Buffers employed are phosphate buffered saline in the presence of 0.01% Tween. Experiments were run in black 384 well low-bind/low volume plates (Corning 3820), and the fluorescent polarization signal was measured using a BMG Pherastar FS plate reader. Fluorescent tracers referred to in the text are bicyclic peptides that have been fluoresceinated using 5,6-carboxyfluorescein. Fluoresceination may be performed on the N-terminal amino group of the peptide, which is separated from the bicycle core sequence by a sarcosine spacer (usually Sar10 (SEQ ID NO: 73)). This can be done during Fmoc solid phase synthesis or post-synthetically (after cyclization with the molecular scaffold reagent and purification) if the N-terminal amino group is unique to the peptide. Fluoresceination can also be performed on the C-terminus, usually on a Lysine introduced as the first C-terminal residue, which is then separated from the bicycle core sequence by a sarcosine spacer (usually Sar6 (SEQ ID NO: 69)). Thus, N-terminal tracers can have a molecular format described as Fluo-Ala-Sar10-A (SEQ ID NO: 72) (BicycleCoreSequence), and (BicycleCoreSequence)-A-Sar6-K (Fluo) (SEQ ID NO: 67) for a C-terminally fluoresceinated construct.
Fluorescent tracers used in the Examples are A-(17-69)-A-Sar6-K (Fluo) (SEQ ID NO: 67), A-(17-69-07)-A-Sar6-K (Fluo) (SEQ ID NO: 67), and A-(17-69-12)-A-Sar6-K (Fluo) (SEQ ID NO: 67). Due to the acidic nature of the 17-69 fluorescent peptides, they were typically prepared as concentrated DMSO stocks, from which dilution were prepared in 100 mM Tris pH 8 buffer.
Due to their high affinities to the MT1-MMP Hemopexin domain (PEX), the fluoresceinated derivatives of 17-69-07 and 17-69-12 (denoted as 17-69-07-N040 and 17-69-12-N005, respectively) can be used for competition experiments (using FP for detection). […] Dissociation of the complex can be measured quantitatively, and the Kd of the competitor (titrant) to the target protein determined. The advantage of the competition method is that the affinities of non-fluoresceinated bicyclic peptides can be determined accurately and rapidly.
Subsequently, the non-fluorescent competitor bicyclic peptide (usually just the bicycle core sequence) is titrated, such that it displaces the fluorescent tracer from the target protein. The displacement of the tracer is measured and associated with a drop in fluorescence polarization. The drop in fluorescence polarization is proportional to the fraction of target protein bound with the non-fluorescent titrant, and thus is a measure of the affinity of titrant to target protein. […]

SMILES | blocking of tumor uptake at a dose of 500 pmoles (HT1080 tumor; 1 h post injection) | blocking of tumor uptake using 5 nmoles (HT1080 tumor; 1 h post injection) | tissue uptake at 1 h [1] [%ID/g] | Kd (MT1-MMP hemopexin domain) [µM] | other results
CC(C)[C@H](NC(=O)[C@@H](CC(=O)O)NC(=O)[C@H](Cc1c[nH]cn1)NC(=O)CN(C)C(=O)CN(C)C(=O)CN(C)C(=O)CN(C)C(=O)CN(C)C(=O)CN(C)C(=O)CN(C)C(=O)CN(C)C(=O)CN(C)C(=O)CN(C)C(=O)CCNC(=O)CN1CCN(CC(=O)O)CCN(CC(=O)O)CCN(CC(=O)O)CC1)C(=O)N1CCC[C@H]1C(=O)N[C@H]1CSCc2cc3cc(c2)CSC[C@H](NC(=O)[C@H](Cc2cccc4ccccc24)NC(=O)[C@H](Cc2ccccc2)NC(=O)C(C)(C)NC(=O)CNC(=O)[C@H](Cc2cccc4ccccc24)NC(=O)[C@@H]2CCCN2C1=O)C(=O)N1CCC[C@H]1C(=O)N[C@@H](C(C)(C)C)C(=O)N[C@@H](CC(N)=O)C(=O)N[C@@H](CCCNC(=N)N)C(=O)NC(C)(C)C(=O)N[C@H](CC(=O)O)C(=O)N[C@H](C(N)=O)CSC3 [I-17] ({DOTA-βAla}-[Sar][Sar][Sar][Sar][Sar][Sar][Sar][Sar][Sar][Sar]H[dD]VPCP[1Nal]G[Aib]F[1Nal]CP[Tle]NR[Aib][dD]C-NH2; linker 15-22-29 via TBMB) | slightly blocked | nearly completely blocked |  |  | 
C[C@H](NC(=O)CN(C)C(=O)CN(C)C(=O)CN(C)C(=O)CN(C)C(=O)CN(C)C(=O)CN(C)C(=O)CN(C)C(=O)CN(C)C(=O)CN(C)C(=O)CN(C)C(=O)CCNC(=O)CN1CCN(CC(=O)O)CCN(CC(=O)O)CCN(CC(=O)O)CC1)C(=O)N[C@H]1CSCc2cc3cc(c2)CSC[C@H](NC(=O)[C@@H](C)NC(=O)[C@H](Cc2cccc4ccccc24)NC(=O)[C@H](CCC(=O)O)NC(=O)[C@H](CC(N)=O)NC(=O)[C@@H](C)NC1=O)C(=O)N[C@@H](CCC(=O)O)C(=O)N[C@@H](CC(=O)O)C(=O)N[C@@H](Cc1ccccc1)C(=O)N[C@@H](Cc1ccc(O)cc1)C(=O)N[C@@H](CC(=O)O)C(=O)N[C@@H](C(C)(C)C)C(=O)N[C@H](C(N)=O)CSC3 [I-24] ({DOTA-βAla}-[Sar][Sar][Sar][Sar][Sar][Sar][Sar][Sar][Sar][Sar]AC[dA]NE[1Nal][dA]CEDFYD[Tle]C-NH2; linker 12-18-25 via TBMB) | slightly blocked | nearly completely blocked | 7.04 ± 2.83 | 0.00137 ± 0.00053 | signal in the tumor compared to I-23 (HT1080 tumor; 1 h post injection): slightly lower; tumor uptake compared to 17-69-07-N144 (HT1080 tumor; 1 h post injection): significantly greater
C[C@H](NC(=O)CN1CCN(CC(=O)O)CCN(CC(=O)O)CCN(CC(=O)O)CC1)C(=O)N[C@H]1CSCc2cc3cc(c2)CSC[C@H](NC(=O)[C@H](C)NC(=O)[C@H](Cc2cccc4ccccc24)NC(=O)[C@H](CCC(=O)O)NC(=O)[C@H](CC(N)=O)NC(=O)[C@@H](C)NC1=O)C(=O)N[C@@H](C)C(=O)N[C@@H](CC(=O)O)C(=O)N[C@@H](Cc1ccccc1)C(=O)N[C@@H](Cc1ccc(O)cc1)C(=O)N[C@@H](CC(=O)O)C(=O)N[C@@H](C(C)(C)C)C(=O)N[C@H](C(N)=O)CSC3 [I-26] ({DOTA}-AC[dA]NE[1Nal]ACADFYD[Tle]C-NH2; linker 2-8-15 via TBMB) |  |  |  | > 5 | tumor uptake compared with the binding variant I-23 (HT1080 tumor; organ distribution, FIG. 8): essentially absent
C[C@H](NC(=O)CN(C)C(=O)CN(C)C(=O)CN(C)C(=O)CN(C)C(=O)CN(C)C(=O)CN(C)C(=O)CN(C)C(=O)CN(C)C(=O)CN(C)C(=O)CN(C)C(=O)CCNC(=O)CN1CCN(CC(=O)O)CCN(CC(=O)O)CCN(CC(=O)O)CC1)C(=O)N[C@H]1CSCc2cc3cc(c2)CSC[C@H](NC(=O)[C@H](C)NC(=O)[C@H](Cc2cccc4ccccc24)NC(=O)[C@H](CCC(=O)O)NC(=O)[C@H](CC(N)=O)NC(=O)[C@@H](C)NC1=O)C(=O)N[C@@H](C)C(=O)N[C@@H](CC(=O)O)C(=O)N[C@@H](Cc1ccccc1)C(=O)N[C@@H](Cc1ccc(O)cc1)C(=O)N[C@@H](CC(=O)O)C(=O)N[C@@H](C(C)(C)C)C(=O)N[C@H](C(N)=O)CSC3 [I-27] ({DOTA-βAla}-[Sar][Sar][Sar][Sar][Sar][Sar][Sar][Sar][Sar][Sar]AC[dA]NE[1Nal]ACADFYD[Tle]C-NH2; linker 12-18-25 via TBMB) |  |  | 0.28 ± 0.05 | > 5 | 
CCCCCCCCCCCCCCCC(=O)NCCC(=O)N(C)CC(=O)N(C)CC(=O)N(C)CC(=O)N(C)CC(=O)N(C)CC(=O)N[C@@H](CCCCNC(=O)CN1CCN(CC(=O)O)CCN(CC(=O)O)CCN(CC(=O)O)CC1)C(=O)N(C)CC(=O)N(C)CC(=O)N(C)CC(=O)N(C)CC(=O)N(C)CC(=O)N(C)CC(=O)N(C)CC(=O)N(C)CC(=O)N(C)CC(=O)N(C)CC(=O)N[C@@H](C)C(=O)N[C@H]1CSCc2cc3cc(c2)CSC[C@H](NC(=O)[C@H](C)NC(=O)[C@H](Cc2cccc4ccccc24)NC(=O)[C@H](CCC(=O)O)NC(=O)[C@H](CC(N)=O)NC(=O)[C@@H](C)NC1=O)C(=O)N[C@@H](C)C(=O)N[C@@H](CC(=O)O)C(=O)N[C@@H](Cc1ccccc1)C(=O)N[C@@H](Cc1ccc(O)cc1)C(=O)N[C@@H](CC(=O)O)C(=O)N[C@@H](C(C)(C)C)C(=O)N[C@H](C(N)=O)CSC3 [I-29] ({Palmitoyl-βAla}-[Sar][Sar][Sar][Sar][Sar]K(DOTA)[Sar][Sar][Sar][Sar][Sar][Sar][Sar][Sar][Sar][Sar]AC[dA]NE[1Nal]ACADFYD[Tle]C-NH2; linker 18-24-31 via TBMB) |  |  |  |  | tumour uptake (HT1080 tumor; 750 pmole per mouse, 6 hour timepoint): 4.8%
